In experiment [1] the target is human oxytocin receptor (human) (UniProt P30559).
Experiment [2] deals with human vasopressin V1a receptor (human) (UniProt P37288).
The target of experiment [3] is human oxytocin receptor (human) (UniProt P30559). The source holds these as a separate data set.

The record followed here is article PMC5892705.

Sequence of human oxytocin receptor (human) (P30559 whole entry): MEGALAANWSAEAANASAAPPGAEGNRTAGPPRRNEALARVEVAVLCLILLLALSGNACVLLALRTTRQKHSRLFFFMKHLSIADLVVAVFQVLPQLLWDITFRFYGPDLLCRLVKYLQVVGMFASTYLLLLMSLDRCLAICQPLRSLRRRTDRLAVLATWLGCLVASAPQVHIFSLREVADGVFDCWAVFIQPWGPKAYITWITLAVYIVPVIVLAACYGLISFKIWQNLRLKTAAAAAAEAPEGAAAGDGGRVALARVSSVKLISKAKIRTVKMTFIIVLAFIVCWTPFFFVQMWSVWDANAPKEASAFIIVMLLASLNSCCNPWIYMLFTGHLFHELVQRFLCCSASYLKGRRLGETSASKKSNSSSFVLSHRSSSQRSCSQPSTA
Sequence of Oxytocin (P01178 whole entry, looked up): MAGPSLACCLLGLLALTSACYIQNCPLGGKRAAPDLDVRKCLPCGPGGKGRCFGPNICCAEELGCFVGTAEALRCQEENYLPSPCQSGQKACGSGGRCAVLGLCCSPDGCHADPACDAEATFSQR
Sequence of human vasopressin V1a receptor (human) (P37288 whole entry): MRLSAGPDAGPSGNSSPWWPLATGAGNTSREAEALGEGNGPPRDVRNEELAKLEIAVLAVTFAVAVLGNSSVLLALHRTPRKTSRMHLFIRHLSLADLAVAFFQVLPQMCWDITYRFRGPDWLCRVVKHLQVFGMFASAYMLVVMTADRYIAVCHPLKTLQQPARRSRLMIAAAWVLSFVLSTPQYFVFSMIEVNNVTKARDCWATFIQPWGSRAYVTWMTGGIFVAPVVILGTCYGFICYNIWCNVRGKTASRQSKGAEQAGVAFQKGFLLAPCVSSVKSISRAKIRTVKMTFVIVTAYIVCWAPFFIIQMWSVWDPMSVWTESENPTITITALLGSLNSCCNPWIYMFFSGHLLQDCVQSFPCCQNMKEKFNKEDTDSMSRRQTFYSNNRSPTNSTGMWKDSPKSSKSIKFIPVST

Turning to “Oxytocin (from UniProt P01178 20-28) (peptide)”, in experiment [1], the tissue bath, contraction amplitude of strips of pregnant human myometrium, EC50 worked out at 0.00114 µM. Moreover, the maximal intracellular Ca2+ in human cardiomyocytes (FLIPR), EC50 in experiment [2] turned out to be 0.174 µM.
d[Se-Se]-OT-OH (peptide) gave an FLIPR Ca2+ mobilization, Emax in experiment [3] of 59%.
